Target: Bh-RNase HC (RNase HI catalytic domain, D132N) (Bacillus halodurans (genomic DNA from …, UniProt Q9KEI9 58-196, D132N))
Experiment: X-ray crystallography

B1: Dickerson-Drew dodecamer (DDD) (dsDNA)
DNA 1: CGCGAATTCGCG
DNA 2: CGCGAATTCGCG
B1: binds.
